Percentage of IFN-γ-producing cells in CD90.1-positive CD8-positive infused T cells of the draining lymph node after stimulation with mERK2 9m peptide (intracellular cytokine staining) data for one substance are collected here from patent publication US20240398864A1.

The test deals with mERK2 9m peptide (synthetic short-chain peptide for CD8-positive T-cell stimulation, …) (mouse). As to the kind of experiment: cell-based or functional assay.

With “mutated ERK2-specific T-cell receptor of DUC18 transgenic mice, on CD8-positive T cells (TCR)”, the percentage of IFN-γ-producing cells in CD90.1-positive CD8-positive infused T cells of the draining lymph node after stimulation with mERK2 9m peptide (intracellular cytokine staining) stood at 80%.
